Here are results for one molecule from patent publication US8030017B2, “Thermostable luciferases and methods of production” (Promega Corporation, priority 1997, dated 2011).

One data set concerns colonies of E. coli. The data set can be described thus: Luminescence of E. coli colonies expressing LucPpl luciferases at room temperature and on heating. In kind it is cell-based. The conditions noted are these: room temperature. The protocol: From colonies of E. coli expressing the luciferases, Luc81-5F01 and Luc81-6G01 produced luminescence most rapidly at room temperature upon addition of luciferin. The luminescence was more rapid and brighter than colonies expressing the wild-type green- and yellow-green-emitting luciferases. The luminescence from all the selected colonies appeared green-shifted compared to the yellow-green parent clone. […] Some of the mutant clones loose their luminescence at 65° C., but the three preferred clones remain bright above 70° C. No spectral changes upon heating the colonies were evident until above 70° C., where those clones still retaining activity began to red-shift slightly (sometime, the initial phases of enzyme denaturation are accompanied by a red shift in the luminescence). The luminescence characteristics of the three preferred mutants are quite similar.

Data set [1] is described as follows: Robotic thermostability screen of LucPpl mutants: decrease of activity over 10 hours at screening temperature. The format is physicochemical. The conditions noted are these: 47° C., third cycle of random mutagenesis. The protocol:
“Enzyme stability” was determined by the rate of activity loss from cell lysates over 10 hours. In successive rounds of evolution the incubation temperature of the lysates was increased.
To prepare luciferases having certain performance, a method for in vitro evolution of enzyme function, as described above, was employed. Briefly described, the method is a recursive process of generating random mutations and screening for desirable properties. It was originally developed primarily to increase the thermostability of luciferases, although other enzymological characteristics are also subject to optimization by the screening criteria. A slightly different strategy was used to achieve the properties described above since two related luciferases needed to be optimized concomitantly.
The luciferases from P. plagiophthalamus have 13 cysteines, which are potentially sensitive to oxidation. This is in contrast to the commonly used firefly luciferase, which has only 4 cysteines. To remove any cysteines that may limit enzyme stability, oligonucleotide-directed mutagenesis was used to randomize the cysteine codons. Three sets of oligonucleotides were used: non-conserved cysteines in regions of low sequence homology (positions 69, 114, 160, 194, 335, and 460), non-conserved cysteines in regions of higher sequence homology (positions 127, 213, 310, and 311), and highly conserved cysteines (positions 60, 80, and 388). […]
The random mutagenesis process was repeated using the best clone from the previous cycle of mutagenesis (Luc53-0G01). […] The discrepancy in measured activity of Luc53-0G01 in this cycle of mutagenesis compared to the previous cycle may be due to changes in the assay procedure and recalibration of the incubator temperature. It should be noted that the recorded thermostabilities from each stage of mutagenesis are calculated from robotic data using abbreviated assay procedures. The data are intended to indicate the relative stabilities of enzyme mutants when assayed in the same screen, rather than providing an accurate quantitation of thermostability.

The nature of data set [2]: Luminescence signal intensity and signal stability in vitro of LucPpl luciferases. The format is biochemical. The conditions noted are these: lysate with 1% Triton X-100. The source says:
For luminescence assays requiring only a few second, the wild-type yellow-green-emitting luciferase produces a very stable signal (the initial rise in the signal evident in the first 2 seconds is due to the response time of the luminometer, not the kinetics of the luminescence reaction). However, the signal intensity was reduced about 30% by the presence of 1% Triton X-100 in the lysate (diluted 1:5 with the addition of assay reagent). In contrast, the luminescence intensity of the mutant luciferases was unaffected by the presence of Triton X-100. […] However, the data are not corrected for the efficiency of enzyme expression in E. coli. Thus, differences in luminescence intensity may not correlate to changes in enzyme specific activity, nor is the expression efficiency in E. coli necessarily relevant to expression in mammalian cells.
For batches of assays requiring more than an hour to process, the signal stability of the yellow-green-emitting luciferase is inadequate under the conditions tested. […] Attempts to correct this by the in vitro evolution yielded mixed results. The signal stability of all three mutant enzymes was generally much improved over the parent yellow-green enzyme for three hours after substrate addition. However, this was accompanied by a greater initial decrease in luminescence during the first half-hour. […]

B1: Luc81-6G01: LucPplYG mutant luciferase, SEQ ID NO:26 (protein)
chain: MMKREKNVIYGPEPLHPLEDLTAGEMLFRALRKHSHLPQALVDVVGDESLSYKEFFEATVLLAQSLHNCGYKMNDVVSICAENNTRFFIPVIAAWYIGMIVAPVNESYIPDELCKVMGISKPQIVFTTKNILNKVLEVQSRTNFIKRIIILDTVENIHGCESLPNGISRYSDGNIANFKPLHFDPVEQVAAILCSSGTTGLPKGVMQTHQNICVRLIHALDPRAGTQLIPGVTVLVYLPFFHAFGFSITLGYFMVGLRVIMFRRFDQEAFLKAIQDYEVRSVINVPSVILFLSKSPLVDKYDLSSLRELCCGAAPLAKEVAEVAAKRLNLPGIRCGFGLTESTSANIHSLRDEFKSGSLGRVTPLMAAKIADRETGKALGPNQVGELCIKGPMVSKGYVNNVEATKEAIDDDGWLHSGDFGYYDEDEHFYVVDRYKELIKYKGSQVAPAELEEILLKNPCIRDVAVVGIPDLEAGELPSAFVVKQPGKEITAKEVYDYLAERVSHTKYLRGGVRFVDSIPRNVTGKITRKELLKQLLEKAGG
modifications: Mutant luciferase
Turning to B1, the “onset of luminescence in E. coli colonies upon addition of luciferin” value with colonies of E. coli is on record as “most rapidly”. This molecule registered a decrease of activity in data set [1] of 100 fold. Moreover, in data set [2], the “stability of luminescence signal in assays of a few seconds” value is “most stable signal”.
